Our source for the Kd values is patent EP4663199A1.

Sequence of bispecific binding molecule comprising a first specific binding molecule (comprising SEQ ID NO:265 a) (chain, as listed by the source, chain 1 of 3): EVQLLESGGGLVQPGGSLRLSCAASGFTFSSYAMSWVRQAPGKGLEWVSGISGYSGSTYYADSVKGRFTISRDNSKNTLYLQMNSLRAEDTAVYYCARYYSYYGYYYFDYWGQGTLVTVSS
Sequence of bispecific binding molecule comprising a first specific binding molecule (comprising SEQ ID NO:265 a) (chain, as listed by the source, chain 2 of 3): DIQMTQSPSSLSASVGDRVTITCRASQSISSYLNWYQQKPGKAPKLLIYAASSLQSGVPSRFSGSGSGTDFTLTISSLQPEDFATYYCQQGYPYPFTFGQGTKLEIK
Sequence of bispecific binding molecule comprising a first specific binding molecule (comprising SEQ ID NO:265 a) (chain, as listed by the source, chain 3 of 3): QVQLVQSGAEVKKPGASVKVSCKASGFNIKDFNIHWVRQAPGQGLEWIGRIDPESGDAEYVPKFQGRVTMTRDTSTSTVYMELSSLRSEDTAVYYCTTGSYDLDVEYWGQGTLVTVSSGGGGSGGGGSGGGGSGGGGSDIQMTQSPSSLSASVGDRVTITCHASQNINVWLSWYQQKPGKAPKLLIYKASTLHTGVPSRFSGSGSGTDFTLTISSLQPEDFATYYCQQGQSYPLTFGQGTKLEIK

The experiment addresses bispecific binding molecule comprising a first specific binding molecule (comprising SEQ ID NO:265 a).
FIGITELLKSSAESLKISQAVHAAHAEINEAGREVVGSAE (modifications not checked) [peptide SEQ ID NO:241 (tag moiety …, no spacer, cargo peptide)] came in with a Kd of 0.013 nM. This lies in the picomolar range.

In turn, FIGITELHKSSAESLKISQAVHAAHAEINEAGREVVGSAE (modifications not checked) [peptide SEQ ID NO:242 (tag moiety …, no spacer, cargo peptide)] showed an equilibrium dissociation constant (Kd) of 0.019 nM.

Consider FIGITELHKGGSAVGALKVPRNQDWLGVPRQL (modifications not checked) [peptide SEQ ID NO:239 (tag moiety …, GGS spacer, cargo peptide)], for which the Kd is 0.063 nM.

Molecule FIGITELLKGGSAVGALKVPRNQDWLGVPRQL (modifications not checked) [peptide SEQ ID NO:238 (tag moiety …, GGS spacer, cargo peptide)] showed a dissociation constant (Kd) of 0.171 nM.

As for FIGITELHK (modifications not checked) [tag moiety … (SEQ ID NO:4)], the Kd was 0.015 nM.

On to FIGITELLK (modifications not checked) [tag moiety … (SEQ ID NO:3)], for which the Kd was 0.063 nM. Compared with the last molecule, the Kd is about 4.2-fold higher.

FIGITELLKGGSSSAESLKISQAVHAAHAEINEAGREVVGSAE (modifications not checked) [peptide SEQ ID NO:244 (tag moiety …, GGS spacer, cargo peptide)] displayed an equilibrium dissociation constant (Kd) of 0.019 nM.

With FIGITELHKGGSSSAESLKISQAVHAAHAEINEAGREVVGSAE (modifications not checked) [peptide SEQ ID NO:245 (tag moiety …, GGS spacer, cargo peptide)], the Kd stood at 0.0054 nM.
